Measured values taken from the supplement of paper PMC7877785.
± gives the uncertainty stated by the source.

Assay: self-splicing fitness, log relative to wild type (ln ratio); higher = more splicing; Tetrahymena group I intron in knt gene, E. coli kanamycin selection, DiMSum; sequences stand for … in CUCUCU…GGAGGGAAAAGUUAUCAGGCAUGCACCUGGUAGCUAGUCUUUAAACCAAUAGAUUGCAUCGGUUUAAAAGGCAAGACCGUCAAAUUGCGGGAAAGGGGUCAACAGCCGUUCAGUACCAAGUCUCAGGGGAAACUUUGAGAUGGCCUUGCAAAGGGUAUGGUAAUAAGCUGACGGACAUGGUCCUAACCACGCAGCCAAGUCCUAAGUCAACAGAUCUUCUGUUGAUAUGGAUGCAGUUCACAGACUAAAUGUCGGUCGGGGAAGAUGUAUUCUUCUCAUAAGAUAUAGUCGGACCUCUCCUUAAUGGGAGCUAGCGGAUGAAGUGAUGCAACACUGGAGCCGCUGGGAACUAAUUUGUAUGCGAAAGUAUAUUGAUUAGUUUUGGAGUACUCGUGGUCG
Summary of the method: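 Library with all eight P1ex-region intron nucleotides randomised, intron inside the knt kanamycin-resistance gene on pET-22b(+), in E. coli BL21(DE3). Cells grew overnight at 37°C or 30°C on LB agar with or without 25 μg/mL kanamycin (plus 100 μg/mL carbenicillin, 50 μM IPTG, 0.2% rhamnose), in six replicate transformations. Pooled colonies were amplicon-sequenced on Illumina HiSeq 2500. DiMSum fitness is the error-weighted combination of wild-type-normalised replicate fold changes, kanamycin versus none.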

Row | Sequence | self-splicing fitness (ln) (30 °C) | self-splicing fitness (ln) (37 °C)
1 | AAAAAGCAAUAUUACGAAGA | -1.96 ± 0.14 | -1.56 ± 0.15
2 | AAAAAGCAAUAUUACGAAGG | -3.57 ± 0.23 | -1.89 ± 0.23
3 | AAAAAGCAAUAUUACGAAUC | -2.31 ± 0.21 | -2.21 ± 0.23
4 | AAAAAGCAAUAUUACGACAC | -0.799 ± 0.094 | -0.575 ± 0.13
5 | AAAAAGCAAUAUUACGACCA | -0.0993 ± 0.079 | -0.734 ± 0.09
6 | AAAAAGCAAUAUUACGAGAG | -2.88 ± 0.11 | -1.95 ± 0.1
7 | AAAAAGCAAUAUUACGAGCU | -0.615 ± 0.092 | -0.172 ± 0.13
8 | AAAAAGCAAUAUUACGAUCU | 0.127 ± 0.055 | 0.246 ± 0.075
9 | AAAAAGCAAUAUUACGCAAG | -1.78 ± 0.097 | -0.583 ± 0.1
10 | AAAAAGCAAUAUUACGCAAU | -0.871 ± 0.076 | -1.08 ± 0.13
11 | AAAAAGCAAUAUUACGCCGA | -1.19 ± 0.088 | -1.01 ± 0.099
12 | AAAAAGCAAUAUUACGCGAC | -2.77 ± 0.18 | -1.23 ± 0.12
13 | AAAAAGCAAUAUUACGCGCC | -0.44 ± 0.095 | -0.59 ± 0.13
14 | AAAAAGCAAUAUUACGCUAC | -3.43 ± 0.18 | -3.23 ± 0.24
15 | AAAAAGCAAUAUUACGGAUU | -0.657 ± 0.068 | -0.635 ± 0.096
16 | AAAAAGCAAUAUUACGGCCC | -0.786 ± 0.22 | 0.00498 ± 0.23
17 | AAAAAGCAAUAUUACGGCUC | -0.28 ± 0.076 | 0.157 ± 0.098
18 | AAAAAGCAAUAUUACGGCUU | -0.00557 ± 0.049 | 0.259 ± 0.066
19 | AAAAAGCAAUAUUACGGGAA | -2.09 ± 0.13 | -1.82 ± 0.13
20 | AAAAAGCAAUAUUACGGGAU | -1.62 ± 0.075 | -1.23 ± 0.086
21 | AAAAAGCAAUAUUACGGUGC | -3.45 ± 0.099 | -2.25 ± 0.081
22 | AAAAAGCAAUAUUACGGUGU | -2.13 ± 0.094 | -1.39 ± 0.11
23 | AAAAAGCAAUAUUACGGUUA | 0.0411 ± 0.067 | -0.012 ± 0.079
24 | AAAAAGCAAUAUUACGUCAC | -4.29 ± 0.26 | -1.27 ± 0.16

Row | Sequence | self-splicing fitness (ln) (30 °C) | self-splicing fitness (ln) (37 °C)
25 | AAAAAGCAAUAUUACGUCUG | -0.785 ± 0.058 | -0.319 ± 0.072
26 | AAAAAGCAAUAUUACGUGCC | -0.945 ± 0.11 | -1.17 ± 0.12
27 | AAAAAGCAAUAUUACGUUCA | -0.237 ± 0.075 | 0.0228 ± 0.089
28 | AAAAAGCAAUAUUACGUUGC | -3.56 ± 0.13 | -2.44 ± 0.14
29 | AAACAGCAAUAUUACGAAUG | -2.81 ± 0.13 | -1.91 ± 0.15
30 | AAACAGCAAUAUUACGACAC | -1.95 ± 0.15 | -0.33 ± 0.15
31 | AAACAGCAAUAUUACGACUA | -0.953 ± 0.074 | 0.0444 ± 0.077
32 | AAACAGCAAUAUUACGAGAU | -3.64 ± 0.2 | -2 ± 0.15
33 | AAACAGCAAUAUUACGAUCG | -2.18 ± 0.11 | -0.0291 ± 0.11
34 | AAACAGCAAUAUUACGAUGU | -1.36 ± 0.088 | -0.715 ± 0.091
35 | AAACAGCAAUAUUACGCAUA | -2 ± 0.096 | -0.419 ± 0.073
36 | AAACAGCAAUAUUACGCCAC | – | -1.77 ± 0.31
37 | AAACAGCAAUAUUACGCGUA | -1.64 ± 0.093 | -0.734 ± 0.083
38 | AAACAGCAAUAUUACGGACG | -2.25 ± 0.087 | -0.676 ± 0.097
39 | AAACAGCAAUAUUACGGCGC | -1.43 ± 0.11 | -0.594 ± 0.16
40 | AAACAGCAAUAUUACGGGUC | -3.47 ± 0.16 | -3.08 ± 0.22
41 | AAACAGCAAUAUUACGGUGU | -2.42 ± 0.06 | -1.4 ± 0.071
42 | AAACAGCAAUAUUACGUCCG | -1.89 ± 0.082 | -0.645 ± 0.1
43 | AAACAGCAAUAUUACGUCUG | -2.28 ± 0.084 | -1.17 ± 0.095
44 | AAACAGCAAUAUUACGUUAG | -3.45 ± 0.14 | -1.72 ± 0.12
45 | AAACAGCAAUAUUACGUUCA | -0.713 ± 0.045 | -0.557 ± 0.063
46 | AAAGAGCAAUAUUACGAAAA | – | -0.77 ± 0.4
47 | AAAGAGCAAUAUUACGAAUU | -1.32 ± 0.22 | -2.28 ± 0.31
48 | AAAGAGCAAUAUUACGAUAU | -3.17 ± 0.23 | -1.97 ± 0.16

Row | Sequence | self-splicing fitness (ln) (30 °C) | self-splicing fitness (ln) (37 °C)
49 | AAAGAGCAAUAUUACGCAAA | -3.16 ± 0.43 | -2.75 ± 0.34
50 | AAAGAGCAAUAUUACGCAUA | -2.55 ± 0.23 | -1.42 ± 0.22
51 | AAAGAGCAAUAUUACGCCCU | -2.57 ± 0.21 | -0.718 ± 0.17
52 | AAAGAGCAAUAUUACGCUCU | – | -2.45 ± 0.49
53 | AAAGAGCAAUAUUACGCUUC | -2.33 ± 0.29 | -3.01 ± 0.43
54 | AAAGAGCAAUAUUACGGCGC | -2.27 ± 0.2 | -0.545 ± 0.21
55 | AAAGAGCAAUAUUACGGCGG | -3.05 ± 0.19 | -2.21 ± 0.24
56 | AAAGAGCAAUAUUACGGGCU | -3.06 ± 0.17 | -3.58 ± 0.34
57 | AAAGAGCAAUAUUACGGGGC | -4.4 ± 0.42 | -2.79 ± 0.36
58 | AAAGAGCAAUAUUACGUAUC | – | -1.57 ± 0.27
59 | AAAGAGCAAUAUUACGUCCG | -3.14 ± 0.21 | -1.86 ± 0.35
60 | AAAGAGCAAUAUUACGUCCU | -1.93 ± 0.13 | -0.831 ± 0.12
61 | AAAGAGCAAUAUUACGUGUG | -3.84 ± 0.18 | -2.57 ± 0.19
62 | AAAGAGCAAUAUUACGUGUU | -4.56 ± 0.36 | -2.66 ± 0.24
63 | AAAGAGCAAUAUUACGUUGG | -3.59 ± 0.22 | -2.4 ± 0.25
64 | AAAUAGCAAUAUUACGACCC | -0.239 ± 0.16 | -0.544 ± 0.23
65 | AAAUAGCAAUAUUACGAUCA | -0.673 ± 0.095 | 0.0414 ± 0.089
66 | AAAUAGCAAUAUUACGCAAA | -2.3 ± 0.24 | -1.66 ± 0.21
67 | AAAUAGCAAUAUUACGCAUA | -1.7 ± 0.11 | -0.726 ± 0.11
68 | AAAUAGCAAUAUUACGCCCG | -0.812 ± 0.19 | 0.00909 ± 0.26
69 | AAAUAGCAAUAUUACGCCUG | -0.3 ± 0.08 | -1.03 ± 0.1
70 | AAAUAGCAAUAUUACGGAGC | -3.73 ± 0.3 | -2.26 ± 0.17
71 | AAAUAGCAAUAUUACGGCCG | -0.799 ± 0.23 | 0.0219 ± 0.35
72 | AAAUAGCAAUAUUACGGGAA | -3.24 ± 0.28 | -1.34 ± 0.19

Row | Sequence | self-splicing fitness (ln) (30 °C) | self-splicing fitness (ln) (37 °C)
73 | AAAUAGCAAUAUUACGGGAG | -2.29 ± 0.14 | -1.84 ± 0.19
74 | AAAUAGCAAUAUUACGGGUA | -2.15 ± 0.12 | -1.41 ± 0.1
75 | AAAUAGCAAUAUUACGGUGC | -4.05 ± 0.43 | -1.81 ± 0.31
76 | AAAUAGCAAUAUUACGUACU | 0.159 ± 0.063 | 0.295 ± 0.091
77 | AAAUAGCAAUAUUACGUAGC | -3.97 ± 0.33 | -1.9 ± 0.31
78 | AAAUAGCAAUAUUACGUGAC | -1.53 ± 0.2 | –
79 | AAAUAGCAAUAUUACGUGUA | -2.49 ± 0.091 | -1.44 ± 0.09
80 | AAAUAGCAAUAUUACGUGUU | -1.72 ± 0.083 | -1.75 ± 0.11
81 | AACAAGCAAUAUUACGAAGA | -2.78 ± 0.12 | -2.12 ± 0.14
82 | AACAAGCAAUAUUACGACAU | -0.261 ± 0.01 | 0.0604 ± 0.032
83 | AACAAGCAAUAUUACGAGCC | -3.25 ± 0.47 | -2.09 ± 0.36
84 | AACAAGCAAUAUUACGAGUU | -3.35 ± 0.099 | -1.5 ± 0.091
85 | AACAAGCAAUAUUACGAUAC | -3.73 ± 0.19 | -1.71 ± 0.12
86 | AACAAGCAAUAUUACGAUCG | -1.4 ± 0.076 | -0.996 ± 0.097
87 | AACAAGCAAUAUUACGCCAU | -2.66 ± 0.11 | -2.08 ± 0.13
88 | AACAAGCAAUAUUACGCCGA | -1.45 ± 0.12 | -1.27 ± 0.12
89 | AACAAGCAAUAUUACGCCGG | -0.692 ± 0.075 | -0.963 ± 0.12
90 | AACAAGCAAUAUUACGCGUG | -1.35 ± 0.04 | -0.814 ± 0.056
91 | AACAAGCAAUAUUACGGGUC | -1.68 ± 0.14 | -1.65 ± 0.17
92 | AACAAGCAAUAUUACGGUGG | -1.84 ± 0.06 | -0.813 ± 0.073
93 | AACAAGCAAUAUUACGUCAG | -3.64 ± 0.16 | -2.39 ± 0.14
94 | AACAAGCAAUAUUACGUCCA | -1.12 ± 0.068 | -0.468 ± 0.076
95 | AACAAGCAAUAUUACGUCUA | -0.68 ± 0.053 | 0.247 ± 0.063
96 | AACAAGCAAUAUUACGUGAG | -1.74 ± 0.05 | -1.01 ± 0.067
